Values quoted from earlier work, collected in US20140303060A1, “PROCESS FOR DEGRADING A BIOFILM ON SURFACES OF OBJECTS” (Fraunhofer Gesellschaft Zur Foerderung der angwandten …, priority 2011, published 2014).

lysostaphin: zinc-dependent enzyme that cleaves the pentaglycine cross bridges of the bacterial cell wall
effect of repeated freezing and thawing on activity: reduction of activity
